Assay results reported in the supplement of paper PMC9112550, “Optimization of the antimicrobial peptide Bac7 by deep mutational scanning” (BMC Biology, 2022).

Tested on: Escherichia coli TOP10
Experiment: shrunken log2 fold change of peptide-encoding DNA abundance (4.5 h post-induction vs induction); higher = less antimicrobial activity (less host growth inhibition)
Settings: time post-induction: 4.5 h; library: site-saturation at positions 5, 18, 19, 20
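Also: peptides expressed intracellularly from a pBAD plasmid library in pooled LB shake-flask culture, induced with 0.3% L-arabinose, DNA abundance read by NGS, three biological replicates, DESeq2 with apeglm shrinkage.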

Row | Sequence | shrunken log2 fold change
1 | RRIRKRPPRLPRPRPRPCANPRP | 0.232
2 | RRIRTRPPRLPRPRPRPPKWPRP | 0.181
3 | RRIRVRPPRLPRPRPRPHDHPRP | -0.244
4 | RRIRPRPPRLPRPRPRPCYPPRP | -0.301
5 | RRIRGRPPRLPRPRPRPDHYPRP | -0.203
6 | RRIRMRPPRLPRPRPRPAFNPRP | 0.144
7 | RRIRCRPPRLPRPRPRPYTRPRP | -0.669
8 | RRIRHRPPRLPRPRPRPWQYPRP | -0.17
9 | RRIRWRPPRLPRPRPRPRWDPRP | 0.0641
10 | RRIRTRPPRLPRPRPRPSKGPRP | -0.605
11 | RRIRTRPPRLPRPRPRPKQTPRP | 0.204
12 | RRIRKRPPRLPRPRPRPQINPRP | -0.159
13 | RRIRVRPPRLPRPRPRPWNAPRP | -0.0893
14 | RRIRARPPRLPRPRPRPEGVPRP | 1.1
15 | RRIRKRPPRLPRPRPRPIHPPRP | 0.0728
16 | RRIRKRPPRLPRPRPRPTWTPRP | 0.0915
17 | RRIRGRPPRLPRPRPRPKWSPRP | 0.564
18 | RRIRCRPPRLPRPRPRPCFRPRP | -0.33
19 | RRIRRRPPRLPRPRPRPRHTPRP | 0.268
20 | RRIRLRPPRLPRPRPRPIEFPRP | -0.449
21 | RRIRQRPPRLPRPRPRPETHPRP | 0.0176
22 | RRIRVRPPRLPRPRPRPSNIPRP | -0.526
23 | RRIRPRPPRLPRPRPRPNELPRP | -0.313
24 | RRIRVRPPRLPRPRPRPNDLPRP | -0.31
25 | RRIRKRPPRLPRPRPRPKATPRP | 0.0944

Row | Sequence | shrunken log2 fold change
26 | RRIRVRPPRLPRPRPRPFMIPRP | -0.256
27 | RRIRPRPPRLPRPRPRPPGVPRP | 0.517
28 | RRIRARPPRLPRPRPRPAPDPRP | 0.93
29 | RRIRERPPRLPRPRPRPNHNPRP | -0.418
30 | RRIRIRPPRLPRPRPRPLLLPRP | -0.597
31 | RRIRLRPPRLPRPRPRPEPEPRP | 0.551
32 | RRIRCRPPRLPRPRPRPPDGPRP | -0.0323
33 | RRIRERPPRLPRPRPRPDEFPRP | 0.0332
34 | RRIRWRPPRLPRPRPRPTVVPRP | 0.134
35 | RRIRMRPPRLPRPRPRPGQYPRP | -0.00987
36 | RRIRRRPPRLPRPRPRPPQPPRP | 1.26
37 | RRIRNRPPRLPRPRPRPPAYPRP | 0.0856
38 | RRIRWRPPRLPRPRPRPKIRPRP | 0.00361
39 | RRIRWRPPRLPRPRPRPSNWPRP | 0.135
40 | RRIRWRPPRLPRPRPRPVDWPRP | 2.21
41 | RRIRGRPPRLPRPRPRPWDCPRP | -0.0637
42 | RRIRMRPPRLPRPRPRPPRKPRP | 1.49
43 | RRIRARPPRLPRPRPRPTEMPRP | -0.00782
44 | RRIRMRPPRLPRPRPRPNTVPRP | -0.162
45 | RRIRHRPPRLPRPRPRPVYTPRP | -0.206
46 | RRIRLRPPRLPRPRPRPRNLPRP | -0.0507
47 | RRIRFRPPRLPRPRPRPSFWPRP | -0.0521
48 | RRIRQRPPRLPRPRPRPMRLPRP | 0.0296
49 | RRIRLRPPRLPRPRPRPNLPPRP | -0.508
50 | RRIRSRPPRLPRPRPRPMKAPRP | -0.00133

Row | Sequence | shrunken log2 fold change
51 | RRIRERPPRLPRPRPRPNNQPRP | -0.59
52 | RRIRNRPPRLPRPRPRPKESPRP | 0.149
53 | RRIRGRPPRLPRPRPRPWLCPRP | 0.266
54 | RRIRHRPPRLPRPRPRPVYFPRP | -0.508
55 | RRIRWRPPRLPRPRPRPINIPRP | -1.2
56 | RRIRHRPPRLPRPRPRPRGPPRP | 0.171
57 | RRIRCRPPRLPRPRPRPTMGPRP | -0.136
58 | RRIRIRPPRLPRPRPRPWIKPRP | -0.0222
59 | RRIRGRPPRLPRPRPRPREFPRP | 1.07
60 | RRIRRRPPRLPRPRPRPYIIPRP | -0.427
61 | RRIRWRPPRLPRPRPRPRDAPRP | 0.632
62 | RRIRIRPPRLPRPRPRPPTVPRP | -0.155
63 | RRIRFRPPRLPRPRPRPQRPPRP | 0.203
64 | RRIRERPPRLPRPRPRPDIYPRP | 0.137
65 | RRIRWRPPRLPRPRPRPHVDPRP | -0.127
66 | RRIRNRPPRLPRPRPRPSFTPRP | -0.255
67 | RRIRSRPPRLPRPRPRPRNFPRP | 0.146
68 | RRIRTRPPRLPRPRPRPSKVPRP | -0.0295
69 | RRIRWRPPRLPRPRPRPFMPPRP | -0.714
70 | RRIRCRPPRLPRPRPRPRISPRP | -0.248
71 | RRIRVRPPRLPRPRPRPNHPPRP | -0.0266
72 | RRIRQRPPRLPRPRPRPYLWPRP | -0.0736
73 | RRIRCRPPRLPRPRPRPAKPPRP | -0.144
74 | RRIRGRPPRLPRPRPRPTEAPRP | -0.0279
75 | RRIRARPPRLPRPRPRPCWQPRP | 0.096

Row | Sequence | shrunken log2 fold change
76 | RRIRRRPPRLPRPRPRPMRNPRP | 0.959
77 | RRIRARPPRLPRPRPRPNGIPRP | -0.109
78 | RRIRNRPPRLPRPRPRPSPNPRP | -0.552
79 | RRIRPRPPRLPRPRPRPNCWPRP | 1.74
80 | RRIRLRPPRLPRPRPRPVQNPRP | 0.0224
81 | RRIRYRPPRLPRPRPRPPGCPRP | 0.334
82 | RRIRIRPPRLPRPRPRPLDAPRP | -0.142
83 | RRIRPRPPRLPRPRPRPYCIPRP | -0.654
84 | RRIRFRPPRLPRPRPRPGDHPRP | 0.0283
85 | RRIRKRPPRLPRPRPRPWQLPRP | -0.00277
86 | RRIRRRPPRLPRPRPRPATWPRP | 0.359
87 | RRIRGRPPRLPRPRPRPIADPRP | 0.16
88 | RRIRTRPPRLPRPRPRPSHWPRP | -0.148
89 | RRIRHRPPRLPRPRPRPNSWPRP | 0.254
90 | RRIRQRPPRLPRPRPRPDMRPRP | 0.0308
91 | RRIRSRPPRLPRPRPRPPHVPRP | 0.113
92 | RRIRARPPRLPRPRPRPDHEPRP | -0.0137
93 | RRIRKRPPRLPRPRPRPLDKPRP | -0.0705
94 | RRIRNRPPRLPRPRPRPNTIPRP | -0.0529
95 | RRIRKRPPRLPRPRPRPVLQPRP | -0.0875
96 | RRIRFRPPRLPRPRPRPYQNPRP | -0.0547
97 | RRIRCRPPRLPRPRPRPAGPPRP | 0.116
98 | RRIRSRPPRLPRPRPRPYHDPRP | -0.174
99 | RRIRLRPPRLPRPRPRPICSPRP | -0.0252
100 | RRIRKRPPRLPRPRPRPLNIPRP | -0.0957

Row | Sequence | shrunken log2 fold change
101 | RRIRYRPPRLPRPRPRPRYDPRP | -0.21
102 | RRIRSRPPRLPRPRPRPWNQPRP | 0.0379
103 | RRIRKRPPRLPRPRPRPMLWPRP | 0.323
104 | RRIRSRPPRLPRPRPRPKQYPRP | -0.361
105 | RRIRDRPPRLPRPRPRPMSAPRP | -0.177
106 | RRIRPRPPRLPRPRPRPKAMPRP | 0.000243
107 | RRIRDRPPRLPRPRPRPDYMPRP | 0.0916
108 | RRIRARPPRLPRPRPRPYPAPRP | -0.146
109 | RRIRNRPPRLPRPRPRPNTLPRP | -0.788
110 | RRIRDRPPRLPRPRPRPWAPPRP | 0.00499
111 | RRIRARPPRLPRPRPRPMCCPRP | 0.335
112 | RRIRGRPPRLPRPRPRPEIVPRP | 0.0103
113 | RRIRSRPPRLPRPRPRPYYDPRP | -0.214
114 | RRIRIRPPRLPRPRPRPAFDPRP | -0.295
115 | RRIRRRPPRLPRPRPRPQTEPRP | -0.0572
116 | RRIRFRPPRLPRPRPRPSVYPRP | -0.158
117 | RRIRWRPPRLPRPRPRPRQGPRP | 0.582
118 | RRIRSRPPRLPRPRPRPRQMPRP | 0.38
119 | RRIRNRPPRLPRPRPRPLTNPRP | 0.00172
120 | RRIRNRPPRLPRPRPRPQRQPRP | 0.0149
121 | RRIRPRPPRLPRPRPRPEPSPRP | 0.314
122 | RRIRPRPPRLPRPRPRPLIDPRP | -0.0112
123 | RRIRFRPPRLPRPRPRPLAKPRP | 0.182
124 | RRIRLRPPRLPRPRPRPCTVPRP | -0.0157
125 | RRIRKRPPRLPRPRPRPYCQPRP | -0.773

Row | Sequence | shrunken log2 fold change
126 | RRIRLRPPRLPRPRPRPEEIPRP | -0.012
127 | RRIRWRPPRLPRPRPRPHDMPRP | -0.202
128 | RRIRGRPPRLPRPRPRPETCPRP | 0.613
129 | RRIRERPPRLPRPRPRPICYPRP | -0.4
130 | RRIRCRPPRLPRPRPRPEDNPRP | 0.11
131 | RRIRCRPPRLPRPRPRPAHLPRP | -0.104
132 | RRIRSRPPRLPRPRPRPYWPPRP | -0.642
133 | RRIRARPPRLPRPRPRPDMFPRP | 0.0745
134 | RRIRCRPPRLPRPRPRPYFMPRP | -0.91
135 | RRIRRRPPRLPRPRPRPTWRPRP | 0.667
136 | RRIRKRPPRLPRPRPRPTGHPRP | 0.348
137 | RRIRGRPPRLPRPRPRPKRKPRP | 0.835
138 | RRIRDRPPRLPRPRPRPVNRPRP | -0.131
139 | RRIRSRPPRLPRPRPRPYMRPRP | -0.0496
140 | RRIRFRPPRLPRPRPRPYYVPRP | -0.14
141 | RRIRFRPPRLPRPRPRPLEWPRP | 0.0696
142 | RRIRQRPPRLPRPRPRPVCNPRP | -0.0714
143 | RRIRMRPPRLPRPRPRPGCFPRP | 0.773
144 | RRIRLRPPRLPRPRPRPNDNPRP | -0.557
145 | RRIRGRPPRLPRPRPRPTWPPRP | 0.52
146 | RRIRERPPRLPRPRPRPNHMPRP | -0.31
147 | RRIRTRPPRLPRPRPRPMVQPRP | 0.0197
148 | RRIRSRPPRLPRPRPRPTTCPRP | 0.0283
149 | RRIRDRPPRLPRPRPRPADDPRP | 0.637
150 | RRIRCRPPRLPRPRPRPSVVPRP | -0.261
